Drawing on the array DNA melting data of Ke et al., this text covers Tm for 66 substances.

A short description of this data set: melting temperature; melt of duplexes. Particulars: sodium 0.0675 M; strand 1 µM.
For the substance “CGACGTGCTACATGTGCTG+CAGCACATCGGGCACGTCG ((((((((...((((((((+))))))))...))))))))”, the melting temperature (Tm) was determined as 49.5 °C.

Regarding “CGACGTGCGATATGTGCTG+CAGCACATCGTGCACGTCG ((((((((...((((((((+))))))))...))))))))”, the Tm was determined as 44.3 °C.

Take “CGACGTGCGCGATGTGCTG+CAGCACATTGCGCACGTCG ((((((((((.((((((((+)))))))).))))))))))”: the melting temperature (Tm) stood at 63.5 °C.

On to “CGACGTGCGTTATGTGCTG+CAGCACATCGTGCACGTCG ((((((((...((((((((+))))))))...))))))))”, for which the midpoint of thermal melting (Tm) was 44 °C.

“CGACGTGCAGAATGTGCTG+CAGCACATGACGCACGTCG ((((((((...((((((((+))))))))...))))))))”: the melting temperature (Tm) stood at 53.1 °C.

Regarding “CGACGTGCAAAATGTGCTG+CAGCACATTATGCACGTCG (((((((((.(((((((((+))))))))).)))))))))”, the Tm amounted to 55.1 °C.

With “CGACGTGCATGATGTGCTG+CAGCACATCGAGCACGTCG ((((((((..(((((((((+)))))))))..))))))))”, the Tm came out at 56.1 °C.

In the case of “CGACGTGCGGAATGTGCTG+CAGCACATTACGCACGTCG (((((((((.(((((((((+))))))))).)))))))))”, the Tm was 62 °C.

For the substance “CGACGTGCCGAATGTGCTG+CAGCACATTGAGCACGTCG ((((((((..(((((((((+)))))))))..))))))))”, the Tm was found to be 53.3 °C.

For the substance “CGACGTGCAAGATGTGCTG+CAGCACATACGGCACGTCG ((((((((...((((((((+))))))))...))))))))”, the Tm was found to be 49.2 °C.

Turning to “CGACGTGCGACATGTGCTG+CAGCACATTCAGCACGTCG ((((((((...((((((((+))))))))...))))))))”, the Tm worked out at 52.4 °C.

As to “CGACGTGCGATATGTGCTG+CAGCACATTCTGCACGTCG ((((((((...((((((((+))))))))...))))))))”, the midpoint of thermal melting (Tm) stood at 51.5 °C.

Consider “CGACGTGCCCCATGTGCTG+CAGCACATCGGGCACGTCG ((((((((((.((((((((+)))))))).))))))))))”, for which the midpoint of thermal melting (Tm) is 57.2 °C.

Turning to “CGACGTGCCGGATGTGCTG+CAGCACATTGTGCACGTCG ((((((((...((((((((+))))))))...))))))))”, the midpoint of thermal melting (Tm) was 47.3 °C.

As for “CGACGTGCATTATGTGCTG+CAGCACATACTGCACGTCG (((((((((.(((((((((+))))))))).)))))))))”, the Tm was 53.8 °C.

In the case of “CGACGTGCATCATGTGCTG+CAGCACATGATGCACGTCG (((((((((((((((((((+)))))))))))))))))))”, the Tm was 64.8 °C.

As to “CGACGTGCGGGATGTGCTG+CAGCACATGCCGCACGTCG ((((((((((.((((((((+)))))))).))))))))))”, the Tm turned out to be 63.7 °C.

Take “CGACGTGCTACATGTGCTG+CAGCACATAACGCACGTCG ((((((((...((((((((+))))))))...))))))))”: the Tm is 49 °C.

As to “CGACGTGCTGTATGTGCTG+CAGCACATTCAGCACGTCG ((((((((((.((((((((+)))))))).))))))))))”, the Tm was 57.5 °C.

As for “CGACGTGCTAGATGTGCTG+CAGCACATGCCGCACGTCG ((((((((...((((((((+))))))))...))))))))”, the Tm was 49.2 °C.

“CGACGTGCTCTATGTGCTG+CAGCACATTCCGCACGTCG ((((((((...((((((((+))))))))...))))))))”: the Tm came to 46.7 °C.

For the substance “CGACGTGCTTGATGTGCTG+CAGCACATTGGGCACGTCG ((((((((...((((((((+))))))))...))))))))”, the melting temperature (Tm) is 50.7 °C.

Regarding “CGACGTGCATCATGTGCTG+CAGCACATCTCGCACGTCG ((((((((...((((((((+))))))))...))))))))”, the Tm was 46.5 °C.

As to “CGACGTGCATTATGTGCTG+CAGCACATGTTGCACGTCG (((((((((..((((((((+))))))))..)))))))))”, the midpoint of thermal melting (Tm) was 52.2 °C.

As to “CGACGTGCTGTATGTGCTG+CAGCACATAGAGCACGTCG (((((((((.(((((((((+))))))))).)))))))))”, the midpoint of thermal melting (Tm) was 55.9 °C.

For the substance “CGACGTGCAAAATGTGCTG+CAGCACATTTTGCACGTCG (((((((((((((((((((+)))))))))))))))))))”, the midpoint of thermal melting (Tm) is 62.4 °C.

Turning to “CGACGTGCGCGATGTGCTG+CAGCACATTCGGCACGTCG ((((((((...((((((((+))))))))...))))))))”, the Tm worked out at 53.2 °C.

In the case of “CGACGTGCTGTATGTGCTG+CAGCACATTTAGCACGTCG (((((((((..((((((((+))))))))..)))))))))”, the Tm was determined as 51.5 °C.

“CGACGTGCCACATGTGCTG+CAGCACATCCCGCACGTCG ((((((((...((((((((+))))))))...))))))))”: the Tm stood at 46.3 °C.

Consider “CGACGTGCCTTATGTGCTG+CAGCACATAGCGCACGTCG ((((((((..(((((((((+)))))))))..))))))))”, for which the Tm was 50.4 °C.

Take “CGACGTGCGTAATGTGCTG+CAGCACATTCCGCACGTCG (((((((((.(((((((((+))))))))).)))))))))”: the Tm is 57.7 °C.

Consider “CGACGTGCGTGATGTGCTG+CAGCACATCTAGCACGTCG ((((((((..(((((((((+)))))))))..))))))))”, for which the Tm was found to be 57.2 °C.

Regarding “CGACGTGCCAAATGTGCTG+CAGCACATCGAGCACGTCG ((((((((...((((((((+))))))))...))))))))”, the Tm is 49.6 °C.

On to “CGACGTGCAACATGTGCTG+CAGCACATTAAGCACGTCG ((((((((...((((((((+))))))))...))))))))”, for which the Tm amounted to 49.2 °C.

Regarding “CGACGTGCGAAATGTGCTG+CAGCACATAGCGCACGTCG (((((((((..((((((((+))))))))..)))))))))”, the midpoint of thermal melting (Tm) amounted to 55.4 °C.

In the case of “CGACGTGCGGTATGTGCTG+CAGCACATGATGCACGTCG ((((((((...((((((((+))))))))...))))))))”, the midpoint of thermal melting (Tm) was determined as 52.2 °C.

As for “CGACGTGCTTAATGTGCTG+CAGCACATAAAGCACGTCG ((((((((((.((((((((+)))))))).))))))))))”, the midpoint of thermal melting (Tm) was determined as 56.2 °C.

Regarding “CGACGTGCGTGATGTGCTG+CAGCACATTAAGCACGTCG ((((((((.(.((((((((+)))))))).).))))))))”, the Tm worked out at 54.5 °C.

In the case of “CGACGTGCCGGATGTGCTG+CAGCACATGGAGCACGTCG ((((((((...((((((((+))))))))...))))))))”, the melting temperature (Tm) was 51 °C.

Regarding “CGACGTGCAGGATGTGCTG+CAGCACATGCAGCACGTCG ((((((((.(.((((((((+)))))))).).))))))))”, the Tm turned out to be 55 °C.

On to “CGACGTGCATGATGTGCTG+CAGCACATATTGCACGTCG (((((((((..((((((((+))))))))..)))))))))”, for which the Tm amounted to 52.3 °C.

Consider “CGACGTGCTTTATGTGCTG+CAGCACATCACGCACGTCG ((((((((.(.((((((((+)))))))).).))))))))”, for which the Tm came out at 47.9 °C.

As to “CGACGTGCACGATGTGCTG+CAGCACATACGGCACGTCG ((((((((...((((((((+))))))))...))))))))”, the Tm was found to be 48.2 °C.

As to “CGACGTGCCTCATGTGCTG+CAGCACATATTGCACGTCG ((((((((...((((((((+))))))))...))))))))”, the midpoint of thermal melting (Tm) came out at 46.7 °C.

With “CGACGTGCGCAATGTGCTG+CAGCACATTGTGCACGTCG ((((((((.((((((((((+)))))))))).))))))))”, the midpoint of thermal melting (Tm) was found to be 59.9 °C.

Regarding “CGACGTGCCCTATGTGCTG+CAGCACATAAAGCACGTCG ((((((((..(((((((((+)))))))))..))))))))”, the melting temperature (Tm) stood at 50 °C.

Consider “CGACGTGCCTCATGTGCTG+CAGCACATTTAGCACGTCG ((((((((...((((((((+))))))))...))))))))”, for which the melting temperature (Tm) was determined as 47.5 °C.

With “CGACGTGCAAGATGTGCTG+CAGCACATCCCGCACGTCG ((((((((..(((((((((+)))))))))..))))))))”, the Tm came to 52.9 °C.

Turning to “CGACGTGCAGAATGTGCTG+CAGCACATGATGCACGTCG (((((((((..((((((((+))))))))..)))))))))”, the midpoint of thermal melting (Tm) was determined as 57.9 °C.

On to “CGACGTGCAATATGTGCTG+CAGCACATGGTGCACGTCG (((((((((..((((((((+))))))))..)))))))))”, for which the Tm came to 51 °C.

In the case of “CGACGTGCCTTATGTGCTG+CAGCACATGTGGCACGTCG (((((((((..((((((((+))))))))..)))))))))”, the Tm came out at 54.4 °C.

For the substance “CGACGTGCCCGATGTGCTG+CAGCACATAGGGCACGTCG ((((((((((.((((((((+)))))))).))))))))))”, the Tm is 61.5 °C.

In the case of “CGACGTGCTTGATGTGCTG+CAGCACATTATGCACGTCG ((((((((.(.((((((((+)))))))).).))))))))”, the Tm is 51.9 °C.

As for “CGACGTGCTTTATGTGCTG+CAGCACATTTTGCACGTCG ((((((((...((((((((+))))))))...))))))))”, the Tm was 49.5 °C.

Take “CGACGTGCACAATGTGCTG+CAGCACATTATGCACGTCG (((((((((.(((((((((+))))))))).)))))))))”: the Tm was found to be 52.8 °C.

With “CGACGTGCGGGATGTGCTG+CAGCACATAGTGCACGTCG ((((((((...((((((((+))))))))...))))))))”, the Tm came to 47.9 °C.

As to “CGACGTGCTGGATGTGCTG+CAGCACATTGCGCACGTCG ((((((((...((((((((+))))))))...))))))))”, the Tm was 49.5 °C.

For the substance “CGACGTGCGCCATGTGCTG+CAGCACATAAAGCACGTCG ((((((((...((((((((+))))))))...))))))))”, the melting temperature (Tm) came out at 53.6 °C.

Take “CGACGTGCTTAATGTGCTG+CAGCACATTCAGCACGTCG (((((((((.(((((((((+))))))))).)))))))))”: the Tm came out at 55.5 °C.

For the substance “CGACGTGCGCTATGTGCTG+CAGCACATCCAGCACGTCG ((((((((...((((((((+))))))))...))))))))”, the melting temperature (Tm) came out at 49.8 °C.

Turning to “CGACGTGCGGGATGTGCTG+CAGCACATCACGCACGTCG (((((((((.(((((((((+))))))))).)))))))))”, the Tm was found to be 63.8 °C.

“CGACGTGCAATATGTGCTG+CAGCACATGAAGCACGTCG ((((((((...((((((((+))))))))...))))))))”: the Tm is 52.3 °C.

Take “CGACGTGCCAAATGTGCTG+CAGCACATGATGCACGTCG ((((((((...((((((((+))))))))...))))))))”: the Tm is 50.3 °C.

Regarding “CGACGTGCAGAATGTGCTG+CAGCACATTGTGCACGTCG (((((((((.(((((((((+))))))))).)))))))))”, the midpoint of thermal melting (Tm) amounted to 55.8 °C.

Turning to “CGACGTGCTATATGTGCTG+CAGCACATATAGCACGTCG (((((((((((((((((((+)))))))))))))))))))”, the Tm turned out to be 61.3 °C.

Turning to “CGACGTGCGTTATGTGCTG+CAGCACATAAGGCACGTCG ((((((((.((((((((((+)))))))))).))))))))”, the Tm came to 56.5 °C.
